From patent US10538802B2, “Polypeptide substrate for the detection of von Williebrand factor cleaving protease ADAMTS13” (IMMUCOR GTI DIAGNOSTICS, INC., priority 2011, dated 2020)

Biological target: T1, ADAMTS13 (Homo sapiens, UniProt Q76LX8)
T1 construct: tissue Gen-Probe GTI Diagnostics (ATS-13 kit calibrators, controls and proficiency samples); George King Biomedical Inc. (FACT, A-FACT, B-FACT plasmas) ATS-13; host or cells: plasma
T1 sequence (Q76LX8 75-1427): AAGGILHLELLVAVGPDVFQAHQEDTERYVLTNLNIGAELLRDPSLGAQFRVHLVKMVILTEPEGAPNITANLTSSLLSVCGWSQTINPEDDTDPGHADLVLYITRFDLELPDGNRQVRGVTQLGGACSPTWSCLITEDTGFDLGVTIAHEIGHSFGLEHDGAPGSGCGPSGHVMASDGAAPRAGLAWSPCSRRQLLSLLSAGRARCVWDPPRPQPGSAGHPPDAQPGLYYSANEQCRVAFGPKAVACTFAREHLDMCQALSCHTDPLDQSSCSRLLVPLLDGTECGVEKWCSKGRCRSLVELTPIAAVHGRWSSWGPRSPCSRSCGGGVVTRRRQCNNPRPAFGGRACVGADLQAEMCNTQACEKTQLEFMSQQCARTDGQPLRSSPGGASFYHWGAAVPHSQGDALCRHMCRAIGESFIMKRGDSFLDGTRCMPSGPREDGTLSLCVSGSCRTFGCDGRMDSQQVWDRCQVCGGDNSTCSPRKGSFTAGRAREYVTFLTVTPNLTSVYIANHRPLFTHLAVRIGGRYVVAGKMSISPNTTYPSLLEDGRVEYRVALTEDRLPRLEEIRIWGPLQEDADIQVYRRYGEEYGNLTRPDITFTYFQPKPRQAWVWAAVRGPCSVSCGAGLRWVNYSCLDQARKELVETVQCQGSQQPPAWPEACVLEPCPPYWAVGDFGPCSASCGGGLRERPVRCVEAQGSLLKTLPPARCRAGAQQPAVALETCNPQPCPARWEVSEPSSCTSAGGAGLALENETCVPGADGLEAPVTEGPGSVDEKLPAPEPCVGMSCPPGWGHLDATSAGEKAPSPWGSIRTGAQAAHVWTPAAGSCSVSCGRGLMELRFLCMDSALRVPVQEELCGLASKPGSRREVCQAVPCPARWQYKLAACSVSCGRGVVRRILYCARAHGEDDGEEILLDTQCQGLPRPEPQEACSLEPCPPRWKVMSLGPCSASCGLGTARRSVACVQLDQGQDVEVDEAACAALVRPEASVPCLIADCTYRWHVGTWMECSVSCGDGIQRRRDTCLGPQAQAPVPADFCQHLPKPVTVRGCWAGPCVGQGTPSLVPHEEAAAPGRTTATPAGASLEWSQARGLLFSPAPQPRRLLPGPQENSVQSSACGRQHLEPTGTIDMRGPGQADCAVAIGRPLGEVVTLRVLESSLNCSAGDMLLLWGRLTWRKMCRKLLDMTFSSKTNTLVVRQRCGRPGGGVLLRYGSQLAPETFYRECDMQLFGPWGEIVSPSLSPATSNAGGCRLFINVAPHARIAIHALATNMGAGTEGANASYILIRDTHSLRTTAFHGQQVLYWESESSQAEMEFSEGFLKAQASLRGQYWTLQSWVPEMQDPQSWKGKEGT
Test: ADAMTS13 activity assay with fluorogenic (FRET) polypeptide substrate and diluted plasma samples
Format: biochemical
Protocol: The procedure in this example was performed substantially as described in Kokame, K., Y. Nobe, Y. Kokubo, A. Okayama, and T. Miyata. 2005. FRETS-VWF73, a first fluorogenic substrate for ADAMTS13 assay. Br. J. Haematol. 129:93-100, but using SEQ ID NO: 1 in place of the 73 amino acid substrate described therein. The FRETS-VWF73 substrate solution was dissolved in 25% dimethyl sulphoxide/water to prepare the 100 microM stock solution. The GTI FRET4 SEQ ID NO: 1 was dissolved in 100% DMSO. Both substrates were diluted to equal concentrations using ATS-13 substrate buffer (Gen-Probe GT1 Diagnostics, Inc., U.S.A., Cat#ATS-13).
Plasma samples were diluted according to the ATS-13 Direction Insert using ATS-13 specimen diluent (Gen-Probe GTI Diagnostics, Inc., U.S.A., Cat# ATS-13). The diluted plasma samples were mixed with the diluted substrate and the fluorescence was read at 0, 5, 10, 15, 20, 30, 45 minutes using a Biotek FLX800 at the appropriate excitation and emission wavelengths for each substrate.
The fluorophore-quencher pair in the SEQ ID NO: 1 polypeptide substrate is FAM-5/TQ 2^Tm (Ex 485±20; Em 528±20; AAT Bioquest, Inc. Sunnyvale, Calif. U.S.A.). The fluorophore and quencher pair of FRETS-VWF73 (Nma/Dnp) described in Kokame has been substituted with FAM-5 and TQ_2 respectively in GTI_FRET4 SEQ ID NO: 1. Furthermore, in the SEQ ID NO: 1 polypeptide the position of the fluorophore (FAM-5) and quencher (TQ_2) has been swapped relative to the position of the fluorophore and quencher of the FRETS-VWF73 construct. Therefore, for GTI_FRET4 SEQ ID NO: 1, attachment of the fluorophore (FAM-5) occurs by substituting asparagine with cystine at position 15. The quencher (TQ_2) was attached by substituting glutamine with lysine at position 4 (FIG. 2 and Table 4).
For this experiment, substrate concentration and fluorescence reader settings determined on the previous experiment are used. The specimens tested (listed in Table 3), include a panel of proficiency samples prepared for use with ATS-13 (Gen-Probe GTI Diagnostics, Inc., U.S.A., Cat# ATS-13) which included samples with normal or deficient ADAMTS13 activity levels. In addition, six Factor Assay ConTrol plasma were used (2 FACT, 2 A-FACT and 2 B-FACT, from George King Biomedical Inc., Kansas, USA). The assays for the SEQ ID NO: 1 substrate and for the prior art FRETS-VWF73 assay were performed generally as according to the procedure described in Example 1. Substrate is prepared according to the conditions used for initial testing of the substrate, which prepared the molar amount of SEQ ID NO: 1 polypeptide substrate used in the assay to be equivalent to the molar amount of FRETS-VWF73 used in the prior art. The […] assays were read at 0, 5, 10, 15, 20, 30, 45 minutes.
Testing of substrate for cleavability by ADAMTS13 is determined as is generally described in Example 1. […]

“DREKAPNLVYMVTGCPASDEIKRLPGDIQVVPIEVIGWPNAPILIQDEETLPREAPDLVLQR [GTI_FRET4]” was tested, and the “% Normal ADAMTS13 Values Calculated Using GTI_FRET4 Substrate” value (sample Calibrator D, incubation 15 Minutes) was 58 % Normal, the “% Normal ADAMTS13 Values Calculated Using GTI_FRET4 Substrate” value (sample Calibrator D, incubation 30 Minutes) was 59 % Normal and the “% Normal ADAMTS13 Values Calculated Using GTI_FRET4 Substrate” value (sample Calibrator D, incubation 45 Minutes) was 59 % Normal. The “% Normal ADAMTS13 Values Calculated Using GTI_FRET4 Substrate” value (sample Calibrator D, incubation 60 Minutes) was 60 % Normal, the “% Normal ADAMTS13 Values Calculated Using GTI_FRET4 Substrate” value (sample Calibrator D, incubation 75 Minutes) was 61 % Normal and the “% Normal ADAMTS13 Values Calculated Using GTI_FRET4 Substrate” value (sample Calibrator D, incubation 90 Minutes) was 62 % Normal. For the same sequence, the “Increase in Fluorescence Values (X minute - 0 minute Reading)” value (from here on “Increase in Fluorescence Values”) (sample Calibrator E, 15 min) was 18,718 RFU, the “Increase in Fluorescence Values” value (sample Calibrator E, 30 min) was 35,085 RFU and the “Increase in Fluorescence Values” value (sample Calibrator E, 45 min) was 49,418 RFU. The “Increase in Fluorescence Values” value (sample Calibrator E, 60 min) was 61,068 RFU, the “Increase in Fluorescence Values” value (sample Calibrator E, 75 min) was 70,603 RFU and the “Increase in Fluorescence Values” value (sample Calibrator E, 90 min) was 82,999 RFU. For the same sequence, the “% Normal ADAMTS13 Values Calculated Using GTI_FRET4 Substrate” value (sample Calibrator E, incubation 15 Minutes) was 101 % Normal, the “% Normal ADAMTS13 Values Calculated Using GTI_FRET4 Substrate” value (sample Calibrator E, incubation 30 Minutes) was 101 % Normal and the “% Normal ADAMTS13 Values Calculated Using GTI_FRET4 Substrate” value (sample Calibrator E, incubation 45 Minutes) was 100 % Normal. The “% Normal ADAMTS13 Values Calculated Using GTI_FRET4 Substrate” value (sample Calibrator E, incubation 60 Minutes) was 100 % Normal, the “% Normal ADAMTS13 Values Calculated Using GTI_FRET4 Substrate” value (sample Calibrator E, incubation 75 Minutes) was 98 % Normal and the “% Normal ADAMTS13 Values Calculated Using GTI_FRET4 Substrate” value (sample Calibrator E, incubation 90 Minutes) was 98 % Normal. The “Increase in Fluorescence Values” value (sample MON110707, 15 min) was 17,881 RFU, the “Increase in Fluorescence Values” value (sample MON110707, 30 min) was 33,432 RFU and the “Increase in Fluorescence Values” value (sample MON110707, 45 min) was 46,848 RFU. The “Increase in Fluorescence Values” value (sample MON110707, 60 min) was 58,747 RFU, the “Increase in Fluorescence Values” value (sample MON110707, 75 min) was 68,370 RFU and the “Increase in Fluorescence Values” value (sample MON110707, 90 min) was 78,371 RFU. The “% Normal ADAMTS13 Values Calculated Using GTI_FRET4 Substrate” value (sample MON110707, incubation 15 Minutes) was 97 % Normal, the “% Normal ADAMTS13 Values Calculated Using GTI_FRET4 Substrate” value (sample MON110707, incubation 30 Minutes) was 96 % Normal and the “% Normal ADAMTS13 Values Calculated Using GTI_FRET4 Substrate” value (sample MON110707, incubation 45 Minutes) was 95 % Normal. For the same sequence, the “% Normal ADAMTS13 Values Calculated Using GTI_FRET4 Substrate” value (sample MON110707, incubation 60 Minutes) was 96 % Normal, the “% Normal ADAMTS13 Values Calculated Using GTI_FRET4 Substrate” value (sample MON110707, incubation 75 Minutes) was 95 % Normal and the “% Normal ADAMTS13 Values Calculated Using GTI_FRET4 Substrate” value (sample MON110707, incubation 90 Minutes) was 92 % Normal. The “Increase in Fluorescence Values” value (sample Positive Control High, 15 min) was 9,146 RFU, the “Increase in Fluorescence Values” value (sample Positive Control High, 30 min) was 17,281 RFU and the “Increase in Fluorescence Values” value (sample Positive Control High, 45 min) was 24,859 RFU. For the same sequence, the “Increase in Fluorescence Values” value (sample Positive Control High, 60 min) was 31,857 RFU, the “Increase in Fluorescence Values” value (sample Positive Control High, 75 min) was 39,838 RFU and the “Increase in Fluorescence Values” value (sample Positive Control High, 90 min) was 47,473 RFU. The “% Normal ADAMTS13 Values Calculated Using GTI_FRET4 Substrate” value (sample Positive Control High, incubation 15 Minutes) was 48 % Normal, the “% Normal ADAMTS13 Values Calculated Using GTI_FRET4 Substrate” value (sample Positive Control High, incubation 30 Minutes) was 49 % Normal and the “% Normal ADAMTS13 Values Calculated Using GTI_FRET4 Substrate” value (sample Positive Control High, incubation 45 Minutes) was 50 % Normal.
